Assays:
VEGF receptor-2 [1] = biological target: T1, VEGF receptor-2 (Homo sapiens, UniProt P35968); assay: Co-immunoprecipitation with VEGF receptor-2 in HEK 293 cells; assay type: cell-based; conditions: HEK 293 VEGFR2 stable cells, 1 nM VEGF 5 min or untreated, anti-VEGFR2 IP
T1 construct: Co-immunoprecipitation of full-length KAPh with full-length VEGF receptor-2; expressed in transfected cells
Experimental: Human umbilical vein endothelial cells (HUVEC) obtained from Clonetics (Walkersville, Md.) were cultured in endothelial growth medium (Clonetics) and were used up to passage 3. HEK 293 cells obtained from the American Type Culture Collection (Manasses, Va.) were cultured in cell growth medium (Dulbecco's modified Eagle's medium supplemented with 10% fetal bovine serum, 1% L-glutamine, 1% nonessential amino acids, and 1% antimycotics). For stable expression, hVEGFR2 was subcloned into pLNCX (Clontech, Palo Alto, Calif.), […] transfected into HEK 293 cells, and selected in the presence of Geneticin. The HEK 293 VEGFR2 clonal cell line was transiently transfected with either the SH2 domain or full-length KAPh in the mammalian expression vector pcDNA4/HisMax (Invitrogen, Carlsbad, Calif.). All constructs were transfected using LipofectAMINE PLUS (Life Technologies, Rockville, Md.) in serum-free DMEM according to the manufacturer's instructions.
HEK 293 cells that stably expressed the VEGF receptor-2 were transiently transfected to express the KAPh SH2 domain or full-length KAPh were treated with 1 nM VEGF or left untreated for 5 min. The cells were lysed in 1% triton lysis buffer with protease inhibitors. Insoluble debris was removed from the lysates by centrifugation at 14,000×g for 10 min at 4° C. […]

[2] = Peptide phosphatase assay (BIOMOL green); assay type: biochemical; conditions: any peptide substrates examined; data not shown
VEGF receptor-2 [3] = biological target: T1, VEGF receptor-2; assay: Dephosphorylation of 32P-labeled VEGF receptor-2; assay type: biochemical; conditions: incubated overnight; data not shown
[4] = biological target: T2, human VEGFR2 intracellular domain (Homo sapiens, UniProt P35968); assay: Yeast two-hybrid interaction with intracellular domain of VEGFR2; assay type: binding; conditions: growth on histidine-deficient and uracil-deficient media
T2 construct: expressed in transfected cells; host or cells: yeast strain MaV203 (pDBLeu-hVEGFR2)
Description: (§1) All two-hybrid plasmid constructs used the pDBLeu and pPC86 yeast expression vectors as a part of the ProQuest Two-Hybrid System (Life Technologies, Rockville, Md.). A cDNA encoding the intracellular domain of human VEGFR2 was generated by PCR from a human VEGFR2/pJFE14 construct, obtained from Regeneron Pharmaceuticals (Tarrytown, N.Y.), and subcloned into the yeast bait vector downstream of the GAL4 DNA-binding domain. A human umbilical vein endothelial cell (HUVEC) cDNA library (in pPC86) was co-transformed with pDBLeu-hVEGFR2 into the MaV203 strain of yeast. Proteins that interacted with the intracellular domain of human VEGFR2 were selected and tested for specificity according to the manufacturer's instructions.
(§2) In an ongoing effort to understand mechanisms by which the biological activity of VEGF is mediated through the VEGF receptor-2 (KDR/Flk-1), we used the entire cytoplasmic domain of KDR as bait to screen human umbilical vein endothelial cell (HUVEC) and human fetal brain cDNA libraries in the yeast two-hybrid system. The intracellular domain of human VEGFR2 (790-1357 SEQ ID NO 8) was constructed in the bait plasmid (pDBLeu) and the cDNA libraries were constructed in the prey plasmid (pPC86). Following transformation of yeast, positive clones were selected by growth on histidine-deficient media and for the expression of β-galactosidase activity (X-gal selection). […]

[5] = biological target: T3, human VEGFR2 intracellular domain (Homo sapiens, UniProt P35968, K868R); assay: as above; assay type: binding; conditions: ATP binding site mutated (K870R)
T3 construct: expressed in transfected cells; host or cells: yeast strain MaV203 (pDBLeu-hVEGFR2)
Description: as §1, §2

T1 sequence (P35968 20-1356): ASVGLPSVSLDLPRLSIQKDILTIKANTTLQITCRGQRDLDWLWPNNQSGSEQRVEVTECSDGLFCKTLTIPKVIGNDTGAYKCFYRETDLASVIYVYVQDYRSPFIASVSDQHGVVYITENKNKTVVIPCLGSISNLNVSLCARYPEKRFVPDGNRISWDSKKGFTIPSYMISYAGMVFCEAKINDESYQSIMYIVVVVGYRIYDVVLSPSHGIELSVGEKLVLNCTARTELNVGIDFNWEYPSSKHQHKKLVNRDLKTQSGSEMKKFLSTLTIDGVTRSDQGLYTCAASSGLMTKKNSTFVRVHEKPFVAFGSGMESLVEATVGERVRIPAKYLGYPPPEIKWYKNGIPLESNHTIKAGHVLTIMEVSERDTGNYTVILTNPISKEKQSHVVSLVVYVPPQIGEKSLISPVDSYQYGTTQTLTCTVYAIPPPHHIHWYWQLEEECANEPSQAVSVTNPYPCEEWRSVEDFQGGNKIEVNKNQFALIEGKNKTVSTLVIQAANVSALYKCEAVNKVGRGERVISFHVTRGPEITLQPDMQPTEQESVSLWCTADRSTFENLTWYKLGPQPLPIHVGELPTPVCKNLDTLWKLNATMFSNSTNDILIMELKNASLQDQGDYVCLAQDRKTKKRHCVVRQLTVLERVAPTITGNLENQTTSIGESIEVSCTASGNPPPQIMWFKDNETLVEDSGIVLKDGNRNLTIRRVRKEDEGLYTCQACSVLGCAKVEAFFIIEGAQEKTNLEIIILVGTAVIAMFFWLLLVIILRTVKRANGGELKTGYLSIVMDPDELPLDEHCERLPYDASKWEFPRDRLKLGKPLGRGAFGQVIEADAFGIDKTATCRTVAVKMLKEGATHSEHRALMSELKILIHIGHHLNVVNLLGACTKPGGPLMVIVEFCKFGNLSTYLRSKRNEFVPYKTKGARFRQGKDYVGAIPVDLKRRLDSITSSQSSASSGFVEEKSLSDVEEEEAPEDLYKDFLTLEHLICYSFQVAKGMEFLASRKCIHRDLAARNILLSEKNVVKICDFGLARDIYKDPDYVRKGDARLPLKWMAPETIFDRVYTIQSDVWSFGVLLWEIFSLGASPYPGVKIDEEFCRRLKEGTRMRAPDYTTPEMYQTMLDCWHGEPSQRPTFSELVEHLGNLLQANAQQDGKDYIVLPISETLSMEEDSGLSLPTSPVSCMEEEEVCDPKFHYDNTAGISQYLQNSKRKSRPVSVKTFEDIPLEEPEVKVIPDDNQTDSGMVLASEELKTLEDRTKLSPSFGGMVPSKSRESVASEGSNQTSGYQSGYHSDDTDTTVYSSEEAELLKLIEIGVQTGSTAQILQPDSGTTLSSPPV
T3 sequence (P35968 790-1356 K868R): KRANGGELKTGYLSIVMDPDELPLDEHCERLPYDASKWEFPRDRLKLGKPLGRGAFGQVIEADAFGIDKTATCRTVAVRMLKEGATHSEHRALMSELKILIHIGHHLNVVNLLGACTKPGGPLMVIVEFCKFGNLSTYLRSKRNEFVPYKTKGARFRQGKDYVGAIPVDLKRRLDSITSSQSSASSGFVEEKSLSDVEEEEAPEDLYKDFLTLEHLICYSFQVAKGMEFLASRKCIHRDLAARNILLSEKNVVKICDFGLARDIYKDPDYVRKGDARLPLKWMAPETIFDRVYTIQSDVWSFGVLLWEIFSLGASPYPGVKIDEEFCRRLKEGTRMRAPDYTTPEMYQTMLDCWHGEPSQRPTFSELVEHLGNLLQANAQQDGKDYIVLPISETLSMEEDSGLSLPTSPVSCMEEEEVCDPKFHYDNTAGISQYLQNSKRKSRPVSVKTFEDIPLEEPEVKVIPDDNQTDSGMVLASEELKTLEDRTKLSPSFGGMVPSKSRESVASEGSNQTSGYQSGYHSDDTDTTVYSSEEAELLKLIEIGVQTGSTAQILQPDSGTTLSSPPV
T2 sequence (P35968 790-1356): as the sequence (P35968 790-1356 K868R) above, with R79K counted along it

B1: KAPh: novel human KDR Associated Phosphatase protein, full-length sequence SEQ ID NOS 1 and 2 (protein, listed as Homo sapiens)
chain: MKPRKAEPHSFREKVFRKKPPVCAVCKVTIDGTGVSCRVCKVATHRKCEAKVTSACQALPPVELRRNTAPVRRIEHLGSTKSLNHSKQRSTLPRSFSLDPLMERRWDLDLTYVTERILAAAFPARPDEQRHRGHLRELAHVLQSKHRDKYLLFNLSEKRHDLTRLNPKVQDFGWPELHAPPLDKLCSICKAMETWLSADPQHVVVLYCKGNKGKLGVIVSAYMHYSKISAGADQALATLTMRKFCEDKVATELQPSQRRYISYFSGLLSGSIRMNSSPLFLHYVLIPMLPAFEPGTGFQPFLKIYQSMQLVYTSGVYHIAGPGPQQLCISLEPALLLKGDVMVTCYHKGGRGTDRTLVFRVQFHTCTIHGPQLTFPKDQLDEAWTDERFPFQASVEFVFSSSPEKIKGSTPRNDPSVSVDYNTTEPAVRWDSYENFNQHHEDSVDGSLTHTRGPLDGSPYAQVQRPPRQTPPAPSPEPPPPPMLSVSSDSGHSSTLTTEPAAESPGRPPPTAAERQELDRLLGGCGVASGGRGAGRETAILDDEEQPTVGGGPHLGVYPGHRPGLSRHCSCRQGYREPCGVPNGGYYRPEGTLERRRLAYGGYEGSPQGYAEASMEKRRLCRSLSEGLYPYPPEMGKPATGDFGYRAPGYREVVILEDPGLPALYPCPACEEKLALPTAALYGLRLEREAGEGWASEAGKPLLHPVRPGHPLPLLLPACGHHHAPMPDYSCLKPPKAGEEGHEGCSYTMCPEGRYGHPGYPALVTYSYGGAVPSYCPAYGRVPHSCGSPGEGRGYPSPGAHSPRAGSISPGSPPYPQSRKLSYEIPTEEGGDRYPLPGHLASAGPLASAESLEPVSWREGPSGHSTLPRSPRDAPCSASSELSGPSTPLHTSSPVQGKESTRRQDTRSPTSAPTQRLSPGEALPPVSQAGTGKAPELPSGSGPEPLAPSPVSPTFPPSSPSDWPQERSPGGHSDGASPRSPVPTTLPGLRHAPWQGPRGPPDSPDGSPLTPVPSQMPWLVASPEPPQSSPTPAFPLAASYDTNGLSQPPLPEKRHLPGPGQQPGPWGPEQASSPARGISHHVTFAPLLSDNVPQTPEPPTQESQSNVKFVQDTSKFWYKPHLSRDQAIALLKDKDPGAFLIRDSHSFQGAYGLALKVATPPPSAQPWKGDPVEQLVRHFLIETGPKGVKIKGCPSEPYFGSLSALVSQHSISPISLPCCLRILSKDPLEETPEAPVPTNMSTAADLLRQGAACSVLYLTSVETESLTGPQAVARASSAALSCSPRPTPAVVHFKVSAQGITLTDNQRKLFFRRHYPVNSITFSSTDPQDRRWTNPDGTTSKIFGFVAKKPGSPWENVCHLFAELDPDQPAGAIVTFITKVLLGQRK
With B1 the “co-immunoprecipitation with VEGFR2” value (VEGF receptor-2 [1]) was “detected in cells stimulated with VEGF”, the “phosphatase activity using peptide substrates” value [2] was “unable to detect significant, reproducible phosphatase activity” and the “change in phosphorylation of 32P-labeled VEGF receptor-2” value (VEGF receptor-2 [3]) was “unable to detect a change in phosphorylation”. The “yeast two-hybrid interaction with wild-type KDR” value [4] was “robust protein-protein interaction” and the “yeast two-hybrid interaction with KDR K870R mutant” value [5] was “essentially no significant interaction”.

From patent publication US20030158083A1, “Method of effecting angiogenesis by modulating the function of a novel endothelia phosphatase” (The Procter & Gamble Company, priority 2002, published 2003)
